This note sets out measurements from paper PMC5931632, “A multi-antigenic MVA vaccine increases efficacy of combination chemotherapy against Mycobacterium tuberculosis” (PLoS ONE, 2018).

The target of this test is T1, Rv0287 (Mycobacterium tuberculosis, UniProt O53692 1-97).
T1 sequence: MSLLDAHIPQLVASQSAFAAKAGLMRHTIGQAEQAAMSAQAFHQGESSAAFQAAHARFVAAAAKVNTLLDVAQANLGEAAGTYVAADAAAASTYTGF
Briefly: pull-down. Conditions: both partners purified.

B1: TB10.4 (natural protein)
chain: MSQIMYNYPAMLGHAGDMAGYAGTLQSLGAEIAVEQAALQSAWQGDTGITYQAWQAQWNQAMEDLVRAYHAMSSTHEANTMAMMARDTAEAAKWGG
notes: also called Rv0288
As to B1, the binding result was “binds”.
